Measured values as given in patent US20210046154A1.
pKd: −log10 of the molar value.

Molecular target: Siglec-10Fc (human) (UniProt Q96LC7)
Experiment: Biacore (SPR): control Fc compared with CD24Fc for binding of Siglec-10Fc; only the fitted value is printed under the KD line, no curve is drawn for the control

UniProt Q96LC7, sequence (Q96LC7 17-546): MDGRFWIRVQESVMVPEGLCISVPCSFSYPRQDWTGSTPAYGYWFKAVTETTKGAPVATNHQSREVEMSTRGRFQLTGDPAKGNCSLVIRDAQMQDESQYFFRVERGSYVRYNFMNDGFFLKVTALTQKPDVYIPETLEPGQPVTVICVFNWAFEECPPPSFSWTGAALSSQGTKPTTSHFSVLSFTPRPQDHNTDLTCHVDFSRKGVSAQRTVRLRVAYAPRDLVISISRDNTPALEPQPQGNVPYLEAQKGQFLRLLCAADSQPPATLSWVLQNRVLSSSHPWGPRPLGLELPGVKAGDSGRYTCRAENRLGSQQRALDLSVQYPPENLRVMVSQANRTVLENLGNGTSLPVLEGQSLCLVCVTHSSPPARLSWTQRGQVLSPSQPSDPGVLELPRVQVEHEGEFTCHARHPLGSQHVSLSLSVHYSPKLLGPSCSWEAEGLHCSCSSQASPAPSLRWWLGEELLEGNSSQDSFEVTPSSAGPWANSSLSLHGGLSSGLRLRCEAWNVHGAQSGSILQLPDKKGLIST

pKd: 4.79
Substance: control Fc
